Sequences and labels used below:
B1: anti-CD30 IgG1 (52-2) (antibody, V domains shown)
VH: EVQLVESGGGLVQPGGSLRLSCAASGFTFSSYYMHWVRQAPGKGLEWVSAISWSGGSTYYADSVKGRFTISRDNSKNTLYLQMNSLRAEDTAVYYCARDRFMPFIPNTLGFDVWGQGTLVTVSS
VL: DIQMTQSPSSLSASVGDRVTITCQASQDISNYLNWYQQKPGKAPKLLIYVASNLETGVPSRFSGSGSGTDFTFTISSLQPEDIATYYCQQDADVPLTFGQGTKVEIK
notes: also called aCD30 clone 52-2 IgG1
B2: anti-CD30 IgG1 (52-38) (antibody, V domains shown)
VH: EVQLVESGGGLVQPGGSLRLSCAASGFTFSSYWMHWVRQAPGKGLEWVSAISWSGDSTYYADSVKGRFTISRDNSKNTLYLQMNSLRAEDTAVYYCARDRSATWYYLGLGFDVWGQGTLVTVSS
VL: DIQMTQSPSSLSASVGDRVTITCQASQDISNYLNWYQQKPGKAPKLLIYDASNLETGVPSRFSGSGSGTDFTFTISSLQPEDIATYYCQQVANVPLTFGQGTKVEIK
notes: also called aCD30 clone 52-38 IgG1
B3: anti-CD30 IgG1 (52-5) (antibody, V domains shown)
VH: EVQLVESGGGLVQPGGSLRLSCAASGFTFSSYYMHWVRQAPGKGLEWVSAISWSGGSTYYADSVKGRFTISRDNSKNTLYLQMNSLRAEDTAVYYCARDRFMPFIPNTLGFDVWGQGTLVTVSS
VL: DIQMTQSPSSLSASVGDRVTITCQASQDISNYLNWYQQKPGKAPKLLIYDASNLETGVPSRFSGSGSGTDFTFTISSLQPEDIATYYCQQDADVPLTFGQGTKVEIK
notes: also called aCD30 clone 52-5 IgG1

The text below walks through data of patent publication US20220275098A1 (NANTBIO, published 2022).

This assay addresses T1, CD30 (analyte in SPR) (UniProt P28908 19-379, limits assumed).
T1 construct: also called Cluster of Differentiation 30; Ki-1
T1 sequence (looked up): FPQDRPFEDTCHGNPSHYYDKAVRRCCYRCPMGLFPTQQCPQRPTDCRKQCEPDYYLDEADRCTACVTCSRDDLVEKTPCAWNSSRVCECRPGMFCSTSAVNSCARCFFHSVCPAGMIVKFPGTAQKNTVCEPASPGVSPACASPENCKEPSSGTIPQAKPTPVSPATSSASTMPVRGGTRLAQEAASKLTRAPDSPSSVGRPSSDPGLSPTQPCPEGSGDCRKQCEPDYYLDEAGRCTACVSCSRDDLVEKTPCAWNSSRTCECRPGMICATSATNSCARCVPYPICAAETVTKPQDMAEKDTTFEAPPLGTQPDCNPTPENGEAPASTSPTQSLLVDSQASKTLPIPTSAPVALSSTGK
Put plainly: SPR, 25° C. pH 7.4, IgG1 captured on chip, CD30 as analyte, average value. The source says: Using the VH and VL domains as noted above, the inventors prepared various CD30 binding constructs, and exemplary results for scFv and IgG1 constructs are shown below.
Take B1: the Kd was 3 nM.

The molecule B2 returned a Kd of 2.5 nM.

In the case of B3, binding was characterised by a dissociation constant (Kd) of 22.3 nM.
